{
  "source": "IntAct's records for PubMed 22817896",
  "parents": {"B1": {"name": "Receptor-interacting serine/threonine-protein kinase 1 (Homo sapiens), Q13546 (parent)", "chain": "MQPDMSLNVIKMKSSDFLESAELDSGGFGKVSLCFHRTQGLMIMKTVYKGPNCIEHNEALLEEAKMMNRLRHSRVVKLLGVIIEEGKYSLVMEYMEKGNLMHVLKAEMSTPLSVKGRIILEIIEGMCYLHGKGVIHKDLKPENILVDNDFHIKIADLGLASFKMWSKLNNEEHNELREVDGTAKKNGGTLYYMAPEHLNDVNAKPTEKSDVYSFAVVLWAIFANKEPYENAICEQQLIMCIKSGNRPDVDDITEYCPREIISLMKLCWEANPEARPTFPGIEEKFRPFYLSQLEESVEEDVKSLKKEYSNENAVVKRMQSLQLDCVAVPSSRSNSATEQPGSLHSSQGLGMGPVEESWFAPSLEHPQEENEPSLQSKLQDEANYHLYGSRMDRQTKQQPRQNVAYNREEERRRRVSHDPFAQQRPYENFQNTEGKGTAYSSAASHGNAVHQPSGLTSQPQVLYQNNGLYSSHGFGTRPLDPGTAGPRVWYRPIPSHMPSLHNIPVPETNYLGNTPTMPFSSLPPTDESIKYTIYNSTGIQIGAYNYMEIGGTSSSLLDSTNTNFKEEPAAKYQAIFDNTTSLTDKHLDPIRENLGKHWKNCARKLGFTQSQIDEIDHDYERDGLKEKVYQMLQKWVMREGIKGATVGKLAQALHQCSRIDLLSSLIYVSQN"}, "B2": {"name": "Receptor-interacting serine/threonine-protein kinase 3 (Homo sapiens), Q9Y572 (parent)", "chain": "MSCVKLWPSGAPAPLVSIEELENQELVGKGGFGTVFRAQHRKWGYDVAVKIVNSKAISREVKAMASLDNEFVLRLEGVIEKVNWDQDPKPALVTKFMENGSLSGLLQSQCPRPWPLLCRLLKEVVLGMFYLHDQNPVLLHRDLKPSNVLLDPELHVKLADFGLSTFQGGSQSGTGSGEPGGTLGYLAPELFVNVNRKASTASDVYSFGILMWAVLAGREVELPTEPSLVYEAVCNRQNRPSLAELPQAGPETPGLEGLKELMQLCWSSEPKDRPSFQECLPKTDEVFQMVENNMNAAVSTVKDFLSQLRSSNRRFSIPESGQGGTEMDGFRRTIENQHSRNDVMVSEWLNKLNLEEPPSSVPKKCPSLTKRSRAQEEQVPQAWTAGTSSDSMAQPPQTPETSTFRNQMPSPTSTGTPSPGPRGNQGAERQGMNWSCRTPEPNPVTGRPLVNIYNCSGVQVGDNNYLTMQQTTALPTWGLAPSGKGRGLQHPPPVGSQEGPKDPEAWSRPQGWYNHSGK"}},
  "data": [
    {"variants_of": "B1", "settings": "with ripk3_human RIPK3, Q9Y572", "values": [
      {"variant": "Y544D", "effect of a mutation on the interaction": "decreasing interaction strength"},
      {"variant": "G542D", "effect of a mutation on the interaction": "decreasing interaction strength"},
      {"variant": "I539D", "effect of a mutation on the interaction": "decreasing interaction strength"},
      {"variant": "N545D", "effect of a mutation on the interaction": "decreasing interaction strength"},
      {"variant": "Q540D", "effect of a mutation on the interaction": "decreasing interaction strength"},
      {"variant": "A543D", "effect of a mutation on the interaction": "decreasing interaction strength"},
      {"variant": "I541D", "effect of a mutation on the interaction": "decreasing interaction strength"}
    ]},
    {"variants_of": "B2", "settings": "with ripk1_human RIPK1, Q13546", "values": [
      {"variant": "V458P", "effect of a mutation on the interaction": "decreasing interaction strength"},
      {"variant": "V460P", "effect of a mutation on the interaction": "decreasing interaction strength"},
      {"variant": "G461P", "effect of a mutation on the interaction": "decreasing interaction strength"},
      {"variant": "Q459P", "effect of a mutation on the interaction": "decreasing interaction strength"}
    ]},
    {"variants_of": "B2", "settings": "with ripk1_human RIPK1, Q13546", "remark": "another data set of the same source", "values": [
      {"variant": "V458D", "effect of a mutation on the interaction": "decreasing interaction strength"},
      {"variant": "V460D", "effect of a mutation on the interaction": "decreasing interaction strength"},
      {"variant": "G461D", "effect of a mutation on the interaction": "decreasing interaction strength"},
      {"variant": "V458E;V460E", "effect of a mutation on the interaction": "decreasing interaction strength"},
      {"variant": "G457D", "effect of a mutation on the interaction": "decreasing interaction strength"},
      {"variant": "D462K", "effect of a mutation on the interaction": "decreasing interaction strength"},
      {"variant": "Q459D", "effect of a mutation on the interaction": "decreasing interaction strength"},
      {"variant": "S456D", "effect of a mutation on the interaction": "decreasing interaction strength"}
    ]}
  ]
}
